From CN111875700A (CUSABIO BIOTECH CO LTD, dated 2020)

Target: T1, SARS-COV-2病毒N蛋白 (nucleocapsid protein) (SARS-COV-2, UniProt P0DTC9 1-419)
T1 construct: Recombinant N protein; also called 核衣壳蛋白
Assay: ELISA of scFv supernatants on coated N protein, detected with anti-E/HRP

B1: 1A6单链抗体 (1A6 scFv) (scFv)
scFv: EVKLKESGAELVKPGASVKLSCTASGFNIKDTYMHWVKQRPGQGLEWIGYINPSTGYTEYNQKFKDKATLTADKSSSTAYMQLSSLTSEDSAVYYCARDALGWYFDVWGAGTLVTVSTGGGGSGGGGSGGGGSDVVMTQSHKFMSTSVGDRVSVTCKASQNVGTNVAWYQQKPGQFPKALIYSASYRYSGVPDRFTGSGSGTDFTLTISNVQSEDLAEYFCQQYNSYPLTFGAGTKLEIK
notes: also called 1A6 single-chain antibody; not shown: E-tag from vector pCANTAB5E (detected with anti-E/HRP)
Q: Does B1 bind?
A: binds
